Article PMC3081289 (2011)

Target: T1, Vascular Endothelial Growth Factor (VEGF), receptor binding domain, VEGF_(8–109) (human)
T1 chain: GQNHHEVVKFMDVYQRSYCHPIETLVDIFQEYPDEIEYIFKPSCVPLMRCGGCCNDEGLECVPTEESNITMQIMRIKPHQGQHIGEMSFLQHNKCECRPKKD
Test: SPR

- koff: 0.0014 s⁻¹
B1: bH1-44 Fab (affinity-improved variant of bH1) (Fab, V domains shown)
VH: EVQLVESGGGLVQPGGSLRLSCAASGFNISGTYIHWVRQAPGKGLEWVARIYPSEGYTRYADSVKGRFTISADTSKNTAYLQMNSLRAEDTAVYYCSRWVGVGFYAMDYWGQGTLVTVSS
VL: DIQMTQSPSSLSASVGDRVTITCRASQNIAKTISGYVAWYQQKPGKAPKLLIYWGSFLYSGVPSRFSGSGSGTDFTLTISSLQPEDFATYYCQQHYSSPPTFGQGTKVEIK
